Like-named read-outs stand apart in the source and are kept apart here.
How the values were obtained:
Experiment in all cases: BLI
[1] = molecular target: T1, human FcRI protein (MednaBio, E1031) (human, UniProt P12314 16-288, limits assumed)
T1 construct: Bought; loaded on anti-penta-HIS biosensors; also called FcγRI
In short: (§1)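 Binding was measured by biolayer interferometry on an Octet Red96 System, with commercial human Fc receptor proteins loaded at 20 μg/mL onto anti-penta-HIS biosensors. Sensors were dipped into an 8-point 1:3 dilution series of test IgG starting at 300 nM in PBS with 0.1% BSA and 0.02% Tween-20. Fcγ receptor assays ran at pH 7.2 and FcRn assays at pH 6. Kd, kon and koff came from global fitting to a 1:1 binding model.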

[2] = molecular target: T2, human FcRIIB/C protein (MednaBio, E1034) (human, UniProt P31994 43-217, limits assumed)
T2 construct: Bought as FcRIIB/C; also called FcγRIIB; CD32B
T2 sequence (looked up): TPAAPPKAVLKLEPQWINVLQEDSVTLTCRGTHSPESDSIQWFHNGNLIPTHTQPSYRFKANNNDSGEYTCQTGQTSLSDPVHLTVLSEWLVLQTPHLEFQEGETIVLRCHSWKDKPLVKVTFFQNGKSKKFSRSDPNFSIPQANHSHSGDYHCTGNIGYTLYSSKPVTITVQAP
In short: as §1

[3] = molecular target: T3, human FcRn protein (MednaBio, E1032) (human, UniProt P55899 24-297; P61769 21-119)
T3 construct: Bought; assays at pH 6
T3 sequence (P55899 24-297 limits assumed, form in doubt, chain 1 of 2): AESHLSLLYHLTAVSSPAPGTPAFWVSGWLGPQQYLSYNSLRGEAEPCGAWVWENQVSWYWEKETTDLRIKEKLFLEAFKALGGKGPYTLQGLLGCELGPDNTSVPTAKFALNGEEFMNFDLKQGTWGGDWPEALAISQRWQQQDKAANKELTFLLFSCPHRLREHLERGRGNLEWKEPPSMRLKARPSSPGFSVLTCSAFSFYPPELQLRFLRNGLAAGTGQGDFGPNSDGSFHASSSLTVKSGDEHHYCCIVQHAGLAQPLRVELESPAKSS
T3 sequence (P61769 21-119 limits assumed, form in doubt, chain 2 of 2): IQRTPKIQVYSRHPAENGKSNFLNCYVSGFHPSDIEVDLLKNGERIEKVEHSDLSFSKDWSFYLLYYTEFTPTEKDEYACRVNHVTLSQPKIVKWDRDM
In short: as §1

[4] = molecular target: T4, human FcRIIA protein (MednaBio, E1033) (human, UniProt P12318 34-218, limits assumed)
T4 construct: Bought; also called FcγRIIA
T4 sequence (looked up): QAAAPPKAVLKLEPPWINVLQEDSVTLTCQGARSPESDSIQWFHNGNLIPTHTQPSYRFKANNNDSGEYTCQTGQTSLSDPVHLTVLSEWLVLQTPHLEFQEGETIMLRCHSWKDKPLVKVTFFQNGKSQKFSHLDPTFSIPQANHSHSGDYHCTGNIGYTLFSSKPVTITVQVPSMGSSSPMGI
In short: as §1

[5] = molecular target: T5, human FcRIIIA-F158 protein (MednaBio, E1036) (human, UniProt P08637 17-208)
T5 construct: Bought; also called FcγRIIIA(F)
T5 sequence (P08637 17-208 limits assumed): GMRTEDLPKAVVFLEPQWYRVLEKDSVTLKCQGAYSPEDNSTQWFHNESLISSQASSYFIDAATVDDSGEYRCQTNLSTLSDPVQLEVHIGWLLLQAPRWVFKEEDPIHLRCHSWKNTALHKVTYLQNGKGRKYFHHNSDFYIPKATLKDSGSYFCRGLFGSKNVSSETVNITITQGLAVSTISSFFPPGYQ
In short: as §1

[6] = molecular target: T1, human FcRI protein (MednaBio, E1031); remark: listed apart in the source
In short: as §1

[7] = molecular target: T6, human FcRIIIB protein (MednaBio, E1037) (human, UniProt O75015 17-200)
T6 construct: Bought; also called FcγRIIIB; FcgRIIIB
T6 sequence (O75015 17-200 limits assumed): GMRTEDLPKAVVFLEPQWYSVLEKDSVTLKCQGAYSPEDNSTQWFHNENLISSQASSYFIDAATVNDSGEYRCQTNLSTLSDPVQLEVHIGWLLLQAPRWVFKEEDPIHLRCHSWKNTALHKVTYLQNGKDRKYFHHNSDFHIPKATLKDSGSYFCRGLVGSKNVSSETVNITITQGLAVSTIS
In short: as §1

[8] = molecular target: T2, human FcRIIB/C protein (MednaBio, E1034); remark: listed apart in the source
In short: as §1

[9] = molecular target: T3, human FcRn protein (MednaBio, E1032); remark: listed apart in the source
In short: as §1

[10] = molecular target: T7, human FcRIIIA-V158 protein (MednaBio, E1035) (human, UniProt P08637 17-208)
T7 construct: Bought; also called FcγRIIIA(V); FcgRIIIA(V)
T7 sequence (P08637 17-208 F176V): as the sequence (P08637 17-208 limits assumed) above, with F160V counted along it
In short: as §1

[11] = molecular target: T4, human FcRIIA protein (MednaBio, E1033); remark: listed apart in the source
In short: as §1

[12] = molecular target: T5, human FcRIIIA-F158 protein (MednaBio, …); remark: listed apart in the source
In short: as §1

[13] = molecular target: T6, human FcRIIIB protein (MednaBio, E1037); remark: listed apart in the source
In short: as §1

[14] = molecular target: T1, human FcRI protein (MednaBio, E1031); remark: listed apart in the source
In short: as §1

[15] = molecular target: T2, human FcRIIB/C protein (MednaBio, E1034); remark: listed apart in the source
In short: as §1

[16] = molecular target: T3, human FcRn protein (MednaBio, E1032); remark: listed apart in the source
In short: as §1

[17] = molecular target: T7, human FcRIIIA-V158 protein (MednaBio, …); remark: listed apart in the source
In short: as §1

[18] = molecular target: T4, human FcRIIA protein (MednaBio, E1033); remark: listed apart in the source
In short: as §1

T1 sequence (P12314 16-288 limits assumed): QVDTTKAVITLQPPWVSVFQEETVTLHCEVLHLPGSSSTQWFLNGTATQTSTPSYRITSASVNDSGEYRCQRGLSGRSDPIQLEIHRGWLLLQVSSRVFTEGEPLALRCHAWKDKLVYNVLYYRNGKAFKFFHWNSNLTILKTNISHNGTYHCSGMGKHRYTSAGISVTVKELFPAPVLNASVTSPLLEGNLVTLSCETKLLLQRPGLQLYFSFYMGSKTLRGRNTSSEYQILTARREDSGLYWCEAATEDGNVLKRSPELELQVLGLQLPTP

B1: wild-type human IgG1 control (antibody)
heavy: not shown
light: SYELTQPPSVSVSPGQTASITCSGDNIGDQYAHWYQQKPGQSPVLVIYQDKNRPSGIPERFSGSNSGNTATLTISGTQAMDEADYYCATYTGFGSLAVFGGGTKLTVLGQPKAAPSVTLFPPSSEELQANKATLVCLISDFYPGAVTVAWKADSSPVKAGVETTTPSKQSNNKYAASSYLSLTPEQWKSHRSYSCQVTHEGSTVEKTVAPTECS
notes: Control IgG
[1]
  Kd: 5.6 nM
  koff: 0.0012 s⁻¹
  kon: 220000 M⁻¹ s⁻¹
[2]
  Kd: 130 nM
  koff: 0.016 s⁻¹
  kon: 120000 M⁻¹ s⁻¹
[3]
  Kd: 16 nM
  koff: 0.008 s⁻¹
  kon: 480000 M⁻¹ s⁻¹
[4]
  Kd: 56 nM
  koff: 0.032 s⁻¹
  kon: 570000 M⁻¹ s⁻¹
[5]
  Kd: 120 nM
  koff: 0.02 s⁻¹
  kon: 170000 M⁻¹ s⁻¹
[6]
  Kd: 5.6 nM
  koff: 0.0012 s⁻¹
  kon: 220000 M⁻¹ s⁻¹
[7]
  Kd: 130 nM
  koff: 0.027 s⁻¹
  kon: 210000 M⁻¹ s⁻¹
[8]
  Kd: 130 nM
  koff: 0.016 s⁻¹
  kon: 120000 M⁻¹ s⁻¹
[9]
  Kd: 16 nM
  koff: 0.008 s⁻¹
  kon: 480000 M⁻¹ s⁻¹
[10]
  Kd: 60 nM
  koff: 0.027 s⁻¹
  kon: 450000 M⁻¹ s⁻¹
[11]
  Kd: 56 nM
  koff: 0.032 s⁻¹
  kon: 570000 M⁻¹ s⁻¹
[12]
  Kd: 120 nM
  koff: 0.02 s⁻¹
  kon: 170000 M⁻¹ s⁻¹
[13]
  Kd: 130 nM
  koff: 0.027 s⁻¹
  kon: 210000 M⁻¹ s⁻¹
[14]
  Kd: 5.6 nM
  koff: 0.0012 s⁻¹
  kon: 220000 M⁻¹ s⁻¹
[15]
  Kd: 130 nM
  koff: 0.016 s⁻¹
  kon: 120000 M⁻¹ s⁻¹
[16]
  Kd: 16 nM
  koff: 0.008 s⁻¹
  kon: 480000 M⁻¹ s⁻¹
[17]
  Kd: 60 nM
  koff: 0.027 s⁻¹
  kon: 450000 M⁻¹ s⁻¹
[18]
  Kd: 56 nM
  koff: 0.032 s⁻¹
  kon: 570000 M⁻¹ s⁻¹

B2: wild-type human IgG4 control (antibody)
heavy: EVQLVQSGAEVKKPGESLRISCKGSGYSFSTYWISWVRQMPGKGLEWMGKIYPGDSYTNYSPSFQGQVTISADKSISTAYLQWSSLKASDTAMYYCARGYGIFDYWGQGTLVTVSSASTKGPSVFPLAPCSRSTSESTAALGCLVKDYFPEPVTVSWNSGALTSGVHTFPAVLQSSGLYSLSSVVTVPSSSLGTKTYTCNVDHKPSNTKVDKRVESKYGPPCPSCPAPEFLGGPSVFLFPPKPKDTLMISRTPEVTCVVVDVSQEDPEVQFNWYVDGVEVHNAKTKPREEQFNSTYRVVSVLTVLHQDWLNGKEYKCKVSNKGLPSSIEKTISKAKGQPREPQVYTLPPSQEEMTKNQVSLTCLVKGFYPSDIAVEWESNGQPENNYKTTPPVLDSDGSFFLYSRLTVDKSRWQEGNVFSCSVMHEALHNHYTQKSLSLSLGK
light: SYELTQPPSVSVSPGQTASITCSGDNIGDQYAHWYQQKPGQSPVLVIYQDKNRPSGIPERFSGSNSGNTATLTISGTQAMDEADYYCATYTGFGSLAVFGGGTKLTVLGQPKAAPSVTLFPPSSEELQANKATLVCLISDFYPGAVTVAWKADSSPVKAGVETTTPSKQSNNKYAASSYLSLTPEQWKSHRSYSCQVTHEGSTVEKTVAPTECS
notes: Control IgG
[1]
  Kd: 4.8 nM
  koff: 0.0017 s⁻¹
  kon: 360000 M⁻¹ s⁻¹
[2]
  Kd: 400 nM
  koff: 0.05 s⁻¹
  kon: 140000 M⁻¹ s⁻¹
[3]
  Kd: 18 nM
  koff: 0.012 s⁻¹
  kon: 640000 M⁻¹ s⁻¹
[4]
  Kd: 400 nM
  koff: 0.055 s⁻¹
  kon: 140000 M⁻¹ s⁻¹
[14]
  Kd: 4.8 nM
  koff: 0.0017 s⁻¹
  kon: 360000 M⁻¹ s⁻¹
[15]
  Kd: 400 nM
  koff: 0.05 s⁻¹
  kon: 140000 M⁻¹ s⁻¹
[16]
  Kd: 18 nM
  koff: 0.012 s⁻¹
  kon: 640000 M⁻¹ s⁻¹
[17]
  Kd: 550 nM
  koff: 0.092 s⁻¹
  kon: 170000 M⁻¹ s⁻¹
[18]
  Kd: 400 nM
  koff: 0.055 s⁻¹
  kon: 140000 M⁻¹ s⁻¹

Source: patent US20200392227A1 (LYVGEN BIOPHARMA, published 2020)
